Source: the DeepSol protein solubility set

Experiment: soluble on expression in E. coli; label from the status in PepcDB or PDB records

Sequence	soluble on expression in E. coli
MQRHTLPLRPLLGTLLLGLLLAGCDASRDDATALGPVPIASGDECHVCGMLIEEMPGPKGESVLPGAVRKFCSTAELFGWWLQPENRQGQARLYVHDMSQADWRHPDDARLIDATRAYYVVGIQRPGGMGATLASFADEEAATRLAAEEGGRVLRFDEIDQAVLQGVGGDHPHRHPAH	not soluble
MTALESSYLNLAYPPRLDLGPQLTHDQLRSSMQSTMARHKGGPVWLFAYGSLIWRPECSAVERKRGRVHGYHRGLYLWSHEHRGTPELPGLVFGLDRGGSCSGFAYRLPEEQLDASLYALWQREMPYPSYRPHWLNCRLEDGSQVQALGFVLERHLPSYAGNLPDDVLNQVFESACGRYGTTRDYVEQTVQALRSHAMPDRNLEARLKRCKGADAHLEHHHHHH	not soluble
MGGGGEDEYESLPTHSVPVHLTAGALAGAVEHCVMFPFDSVKTRMQSLCPCPETKCPTPVHSLMSIVKREGWLRPLRGVNAVAAGSMPAHALYFTVYEKMKGYLTGNSAGHSNTLAYGASGVVATLIHDAIMNPAEVVKQRMQMAFSPYGSSLECARCVYNREGVAAFYRSYTTQLAMNVPFQAIHFMSYEFWQHVLNPEHKYDPKSHLIAGGLAGGLAAALTTPMDCVKTVLNTQQAAEADPANRRIFLQARYRYRGISDAVRTIYSQRGLSGFSCGLQARVIFQVPATALSWSVYELFKFMLSFEGGHSS	not soluble
MGHHHHHHSHMERFVVTAPPARNRSKTALYVTPLDRVTEFGGELHEDGGKLFCTSCNVVLNHVRKSAISDHLKSKTHTKRKAEFEEQNVRKKQRPLTASLQCNSTAQTEKVSVIQDFVKMCLEANIPLEKADHPAVRAFLSRHVKNGGSIPKSDQLRRTYLPDGYENENQLLNSQDC	soluble
MSLAKALSLMLAQLNLTVGAIEDNCDKVLAAAAEADRQGADLLVCSELALTGYPPEDLLLRVDLMIRVEAALARLAAWQGACAILVGHPWRDGEALYNAASLYEQGKLVARYFKQDLPNYGVFDEKRYFTAATETCVVPFRGHQLGLLICEDLWQPGPALAAKAAGAELLLTINASPYDQEKPWIRRELMAERCDQTGLPLVYLNQVCGQDELIFDGCSKVFNSQGELTHKLAPFAEELALVRFADGQPVKEREPAAPLEPLAETYQALVLAVRDYVTKNGFHGAVLGLSGGIDSALTLAIAADAIGADKVQAVMMPFRYTAQMSVEDAKEQAERMGVEFNIISIEPMFEGFMAQLAPLFEGTARDTTEENLQARCRGVLLMALSNKRRCIVLTTGNKSEMAVGYATLYGDMAGGFDVLKDVPKTLVFKLCEYRNSVDYVIPQRVIDRPPSAELAPDQVDQDSLPPYDILDAILKRYVEEDASVADMVAEGFEEAVVRKVIRLVDLNEYKRRQAAVGPRITARNFGKDRRYPITSGFGKQNWEGHHHHHH	soluble
MGSDKIHHHHHHMFFETTFHDATEQEASLPGWRQEYRQVSTGGYDGRTMAILLPGVEILRETISVGTEQMFSAPEGSMIFYYYPKRDRSELVRGEKATGVSGFALNWTNRIGFMDADSDLLMLVLRRDAVADEDRSRIAELVEPPLENAAFLADWLLSLLGGARQQSHPCAWGKFDGVLADVITDRFELLFQKSLVRQTPHIAQTEQIYRKIRDRIFDAPDMPHSVKSLSRDLGVSAFNLRASCQSFTQIPLDRILMMLRLNGARRDLLHARCSPRKVSDIAMDWGFFHWSRFALRYKSLFGETPSQTLKG	not soluble
MHHHHHHSSGVDLGTENLYFQSMHGWGYGQDDGPSHWHKLYPIAQGDRQSPINIISSQAVYSPSLQPLELSYEACMSLSITNNGHSVQVDFNDSDDRTVVTGGPLEGPYRLKQFHFHWGKKHDVGSEHTVDGKSFPSELHLVHWNAKKYSTFGEAASAPDGLAVVGVFLETGDEHPSMNRLTDALYMVRFKGTKAQFSCFNPKCLLPASRHYWTYPGSLTTPPLSESVTWIVLREPICISERQMGKFRSLLFTSEDDERIHMVNNFRPPQPLKGRVVKASF	soluble
MGSDKIHHHHHHMDENEFDNQRENKAVARVIISFLKYEEYALKEIYNLRVKKWASISDRQKDMVPNYTKYLANLKAAIIENGKFFRSVAEYALQSISFEPGEIVQPNDLDMSKTCSLLTQVYREWSAEAISERNCLNSRLVPFLKTLSPPKADILIPGCGTGRLLVDLSRMGYNCEGNEFSYHMLLVSQYMLNAGLLQNQIIIYPFIHCFSHWKKIEDQLSPIKVPDIEAWSSNKGMGSMSICAGSFVDCYGRNQGTKISSHYTFSRRMQLSRAKAENSKDVVVTNFFIDTGSNILDYLDTIGHVLKPGGIWCNFGPLLYHFENDHGVETTYEVNPYSGFQDKINDYTPLMGLELSSDDIISIATNHLDFELIRRESGILCGYGRYAGPESCAMPGYMCHYWILKSNPTNES	not soluble
MKKSLGARTLAYPTPLFLVGTYDRDSRPNIMAAAWAGICCSQPPSIAVSLRKATYTYRSITERGAFTISIPSRAYVRHADYAGIYSGENEDKFASLGLTPVPGEHVDAPYVGEFPMAIELKLIHQIEIGLHTQFIGEIMDVKVDESCLRDDGLPDINKVDPVIFAPVSREYYAVGEFLAKAFSAGKGLRS	soluble
ADFDYVVVGAGNAGNVVAARLTEDPDVSVLVLEAGVSDENVLGAEAPLLAPGLVPNSIFDWNYTTTAQAGYNGRSIAYPRGRMLGGSSSVHYMVMMRGSTEDFDRYAAVTGDEGWNWDNIQQFVRKNEMVVPPADNHNTSGEFIPAVHGTNGSVSISLPGFPTPLDDRVLATTQEQSEEFFFNPDMGTGHPLGISWSIASVGNGQRSSSSTAYLRPAQSRPNLSVLINAQVTKLVNSGTTNGLPAFRCVEYAEQEGAPTTTVCAKKEVVLSAGSVGTPILLQLSGIGDENDLSSVGIDTIVNNPSVGRNLSDHLLLPAAFFVNSNQTFDNIFRDSSEFNVDLDQWTNTRTGPLTALIANHLAWLRLPSNSSIFQTFPDPAAGPNSAHWETIFSNQWFHPAIPRPDTGSFMSVTNALISPVARGDIKLATSNPFDKPLINPQYLSTEFDIFTMIQAVKSNLRFLSGQAWADFVIRPFDPRLRDPTDDAAIESYIRDNANTIFHPVGTASMSPRGASWGVVDPDLKVKGVDGLRIVDGSILPFAPNAHTQGPIYLVGKQGADLIKADQ	soluble
SLGMDEKSVAIVFPHHLLEDHPAAGKTSGFILVEDQLFFGDPVFGLRFHKNKLVLHRASMRYYHDHLKSRGLKAEYIQYSPDPHMGYLRDHLEGYDRVYTLELLDHELEARMKKLSMELGLEITEIEAPFIFRRNLMDGYFRDGRFLLRSFYIRERKRLSILMENSRPAGGKWTFDTENRKRMPPDLQVPAPVKLPENEYVQEAKEYVSEKFPDNPGSMDRFNYP	not soluble
MHKNGKFIPLLALGFTFFLSGCDYFADKHLVEEMKEQQKEQETKINLLEKQQKEQEAKINLLEKQQATIINTTKKVTEVVGRVERKQRLFDYTELDPSQTHYFIINNGNIGLAGRILSIEPIDNGSVIHLDLVNLLSIPVSNLAFNMTWGTKKPSEAKDLPRWKQLLLNTKMDSTIELLPGAWTNVTLTLKGVSPNNLKYLKIGIDMENVIFDSIQPINDTKKKPKK	not soluble
MGKYDALVELLLEAVKEGANIHQEDCSIPVGISNRHIHLSQADVNTLFGEGYSLTRIKDLSQPGQYACKETLTICGPKGAIENVRILGPERRESQVEILRTDCFKLGLKAPVKLSGELQGTPGMTLVGPKGSVLLSQGVIVAQRHIHMSLEDAQRFGVRDGELVTIQINGLRGGTYANVAIRANNTSQLECHIDTDEANGMDLTPTSRITIIK	not soluble
MGSSHHHHHHSSGLVPRGSHMFTTKLAEKVVSAWKAKISQPALKAAQDGVIDTVAAALGGVTEHSVQVALKYVAATGGSGDSKLWGVNQRSNMFDAAFVNGMAAHAIDFDDSFPVMRGHPSSSLVPAIFAVGEHVGANGHNCLKSYVLGIEVVATLGRAVGKGHYLAGWHPTSTLGVFGATTAAALLLGADEEQLRNAWGIAASNSCGIIKNFGTMTKPMHTGSAARNGVLSAWLSMQSFTGCQTVFDDAEGILAMYGAQPGPELFNAMQKFGTPWAIIAPGLYKKSWPSCYANHKPLAGLFAIMKEHGLTGQDISHVDVGFLPGVEKPLLYMDPRTTEEAKFSIEANIGAALLDGEVSLASFEIEHLDRPAMRAAMKKVTRFDMPSETTFSGTTGYTDIVVHTADGKIERRIEATPGSLEDPMDDAHLERKFKDCTAWMPFGESGLLFDRLRSLTADQGIKTVQP	soluble
MPWRTALKVALAAGEAVAKALTRAVRDEIKQTQQAAARHAASTGQSASETRENANSNAKLGISLEESLQILNVKTPLNREEVEKHYEHLFNINDKSKGGTLYLQSKVFRAKERIDEEFGRIELKEEKKKEENAKTE	not soluble
MAHHHHHHMQCSSLKTGCLKLLSQLPEGLQQAGRTAVSAHQRSYCPYSNFAVGAALLHDDGKVTSGCNYETCVYKGTCAEACAIVKANMDGYRTAQAVAIYGRSVLPTAAAAAADATVPPCGFCRQLLAEVADLSGNMNDFLVVLVTFDQEHARLFRLSELLPQPFGPSSIGMDVAALATGEHSRCPGTF	not soluble
MQRIETRKVKVGSVYVGGDSRVTVQSMTNTDTRDSKKTIEQIKKLEIAGCDIVRCAVPDFDAASSLSEITKNVKLPVVADIHFDYRLALEAIKNGVSALRINPGNIGSKERVELVAKSAKEKNIPIRIGVNSGSLEKDILNKYKRVCSEALVESALNHVKILEDVNFNDIVISIKSSNVQMMIDSYRLISKEVNYPLHLGVTEAGTIWRGTIKSSIGIGTLLSEGIGDTIRVSLTGDPVEEVKVGREILKTFGYLKSGVEFISCPTCGRTSIDLIKIANEVEKRLEKTNKSIKVAVMGCVVNGPGEAREADIGIAGGKGEGLIFKKGEIIKKVKEENLVDELMREIDNMLEHHHHHH	not soluble
MSGTASKGSSSDSASEKTEMRTYKSPKGNVNIPAHPKRIVTDFYAGELLSVGANVVGSGSWSFDNPFLKSKLKNVKDVGDPISVEKVMELQPDLIVVMNEENVDKLKKIAPTVVIPYNTAKNVEDTVSMFGDIAGAKDQAKSFMADFNKKAEAAKKKIAGVIDKDATFGIYENTDKGEFWVFNDNGGRGGQAVYNALGLKAPEKIEQDVIKKGEMKQLSQEVIPEYAADYMFITDYNPKGESKTLDKLENSSIWKNLDAVKHNRVFINDFDSFYPYDPISVSKQVDIITDMLIKRAEENLEHHHHHH	soluble
MGSDKIHHHHHHMIDARVKFRHLQTFVEVARQKSVVKAAELLHVTQPAVTKTIRELEEVLGVAVFEREGRGIKITRYGEVFLRHAGAALTALRQGLDSVSQERSGEGPPIRVGALPTVSTRIMPRAIALFLKEKTGARIKIVTGENAVLLEQLRIGDLDLVVGRLAAPDKMTGFSFEHLYSEQVVFAVRAGHPLISGRQSLFAHLSDYPVLMPTRASIIRPFVEHFLIANGIAGLPNQIETVSDSFGRAFVRSSDAIWIISAGVVATDIADGVLAALPVDTSETRGPVGLTMRTDAIPSLPLSILMQTLREVAGTAMAAEAKRTA	not soluble
MGSDKIHHHHHHMERRTILVTGASGFVGGALCRQLATLGSFAIRAASRDLGGASVAGIQAVTVADLSATTDWARALSGVDLVVHAAARVHVMKETASDSLAEFRRVNVDGTLNLARQAAAAGVRRFIFISSIKVNGESSQPGQPLRADDSPAPQDAYGVSKHEAEQGLRQLAAATGMEVVVIRPVLVYGPGVKANFHSMMRWLQRGVPLPFGAVCNRRSLVSLANLVDLVVTCIDHPRAANQTFLASDGDDVSLTQLLRALGLALGRPARLLPVPAGLLRGAVLLIGRRDLAQRLFGTLQVDIEKNRQLLGWYPPCTLEQGLNMTARSFLGARRP	not soluble
